From PMC11005391, “Tetramerization is essential for the enzymatic function of the Pseudomonas aeruginosa virulence factor UDP-glucose pyrophosphorylase” (mBio, 2024)

Columns and labels:
Q9I291 = assay: SEC; Superdex 200 10/300 GL, 50 mM Tris-HCl pH 8.0, 300 mM NaCl, 10 mM MgCl2; oligomeric state calculated from elution volumes of proteins of known size; addition of UTP, Glc-1-P or UDP-Glc did not affect the oligomerization of the WT
[1] = target: the molecule itself; assay: as above
[2] = target: the molecule itself; assay: native gel or EMSA; blue native PAGE, uniform 12% polyacrylamide gel with 3.5% stacking gel, 13.5 ug of each protein loaded, Coomassie-stained bands
[3] = target: the molecule itself; assay: cell-based or functional assay

Protein	N of the monomer peak (minor peak) (Q9I291)	stoichiometry N [1]	stoichiometry N [2]	In vitro activity (% of WT), EnzChek pyrophosphate assay, forward reaction [3]	N of a minor peak [1]
PaUGP N32A (enzyme, UDP-glucose pyrophosphorylase of Pseudomonas aeruginosa (galU), residues 1-279, point mutant of Strep-PaUGP; Same construct as m1; source: E. coli BL21(DE3), purified (Strep-Tactin Sepharose); not shown: Strep-tagII, N-terminal, kept) MIKKCLFPAAGYGTRFLPATKAMPKEMLPVVAKPLIQYAVEEALEAGLSEIGIVTGRGKRSLEDHFDISYELEHQIRNTDKEKYLVGIRRLIDECTFAYTRQVEMKGLGHAILTGRPLIGDEPFAVVLADDLCLNLEGDSVLKQMVKLYNQFRCSIVAIQEVPPEETNKYGVIAGEMIRDDIFRVNTMVEKPKPEEAPSNLAIIGRYILTPDIFDLIEQTEPGKGGEIQITDALMKQAQDGCVLAYKFKGKRFDCGSAEGYIEATNFCYENLYKTGKAH	1.1	4.4	4	56.2 % of WT	
PaUGP N32D (enzyme, UDP-glucose pyrophosphorylase of Pseudomonas aeruginosa (galU), residues 1-279, point mutant of Strep-PaUGP; Same construct as m1; source: E. coli BL21(DE3), purified (Strep-Tactin Sepharose); not shown: Strep-tagII, N-terminal, kept) MIKKCLFPAAGYGTRFLPATKAMPKEMLPVVDKPLIQYAVEEALEAGLSEIGIVTGRGKRSLEDHFDISYELEHQIRNTDKEKYLVGIRRLIDECTFAYTRQVEMKGLGHAILTGRPLIGDEPFAVVLADDLCLNLEGDSVLKQMVKLYNQFRCSIVAIQEVPPEETNKYGVIAGEMIRDDIFRVNTMVEKPKPEEAPSNLAIIGRYILTPDIFDLIEQTEPGKGGEIQITDALMKQAQDGCVLAYKFKGKRFDCGSAEGYIEATNFCYENLYKTGKAH	1.4	4.7		110 % of WT	
PaUGP Q75E (enzyme, UDP-glucose pyrophosphorylase of Pseudomonas aeruginosa (galU), residues 1-279, point mutant of Strep-PaUGP; Same construct as m1; source: E. coli BL21(DE3), purified (Strep-Tactin Sepharose); not shown: Strep-tagII, N-terminal, kept) MIKKCLFPAAGYGTRFLPATKAMPKEMLPVVNKPLIQYAVEEALEAGLSEIGIVTGRGKRSLEDHFDISYELEHEIRNTDKEKYLVGIRRLIDECTFAYTRQVEMKGLGHAILTGRPLIGDEPFAVVLADDLCLNLEGDSVLKQMVKLYNQFRCSIVAIQEVPPEETNKYGVIAGEMIRDDIFRVNTMVEKPKPEEAPSNLAIIGRYILTPDIFDLIEQTEPGKGGEIQITDALMKQAQDGCVLAYKFKGKRFDCGSAEGYIEATNFCYENLYKTGKAH		3.5			
PaUGP K21A + R101A double mutant (enzyme) MIKKCLFPAAGYGTRFLPATAAMPKEMLPVVNKPLIQYAVEEALEAGLSEIGIVTGRGKRSLEDHFDISYELEHQIRNTDKEKYLVGIRRLIDECTFAYTAQVEMKGLGHAILTGRPLIGDEPFAVVLADDLCLNLEGDSVLKQMVKLYNQFRCSIVAIQEVPPEETNKYGVIAGEMIRDDIFRVNTMVEKPKPEEAPSNLAIIGRYILTPDIFDLIEQTEPGKGGEIQITDALMKQAQDGCVLAYKFKGKRFDCGSAEGYIEATNFCYENLYKTGKAH				0.32 % of WT	
PaUGP D67A (enzyme, UDP-glucose pyrophosphorylase of Pseudomonas aeruginosa (galU), residues 1-279, point mutant of Strep-PaUGP; Same construct as m1; source: E. coli BL21(DE3), purified (Strep-Tactin Sepharose); not shown: Strep-tagII, N-terminal, kept) MIKKCLFPAAGYGTRFLPATKAMPKEMLPVVNKPLIQYAVEEALEAGLSEIGIVTGRGKRSLEDHFAISYELEHQIRNTDKEKYLVGIRRLIDECTFAYTRQVEMKGLGHAILTGRPLIGDEPFAVVLADDLCLNLEGDSVLKQMVKLYNQFRCSIVAIQEVPPEETNKYGVIAGEMIRDDIFRVNTMVEKPKPEEAPSNLAIIGRYILTPDIFDLIEQTEPGKGGEIQITDALMKQAQDGCVLAYKFKGKRFDCGSAEGYIEATNFCYENLYKTGKAH		2.3		3.31 % of WT	5.5
PaUGP E63D (enzyme, UDP-glucose pyrophosphorylase of Pseudomonas aeruginosa (galU), residues 1-279, point mutant of Strep-PaUGP; Same construct as m1; source: E. coli BL21(DE3), purified (Strep-Tactin Sepharose); not shown: Strep-tagII, N-terminal, kept) MIKKCLFPAAGYGTRFLPATKAMPKEMLPVVNKPLIQYAVEEALEAGLSEIGIVTGRGKRSLDDHFDISYELEHQIRNTDKEKYLVGIRRLIDECTFAYTRQVEMKGLGHAILTGRPLIGDEPFAVVLADDLCLNLEGDSVLKQMVKLYNQFRCSIVAIQEVPPEETNKYGVIAGEMIRDDIFRVNTMVEKPKPEEAPSNLAIIGRYILTPDIFDLIEQTEPGKGGEIQITDALMKQAQDGCVLAYKFKGKRFDCGSAEGYIEATNFCYENLYKTGKAH	1.3	3.9	4	5.68 % of WT	
PaUGP D67A + R101A double mutant (enzyme, UDP-glucose pyrophosphorylase of Pseudomonas aeruginosa (galU), residues 1-279, double mutant of Strep-PaUGP; Same construct as m1; source: E. coli BL21(DE3), purified (Strep-Tactin Sepharose); not shown: Strep-tagII, N-terminal, kept) MIKKCLFPAAGYGTRFLPATKAMPKEMLPVVNKPLIQYAVEEALEAGLSEIGIVTGRGKRSLEDHFAISYELEHQIRNTDKEKYLVGIRRLIDECTFAYTAQVEMKGLGHAILTGRPLIGDEPFAVVLADDLCLNLEGDSVLKQMVKLYNQFRCSIVAIQEVPPEETNKYGVIAGEMIRDDIFRVNTMVEKPKPEEAPSNLAIIGRYILTPDIFDLIEQTEPGKGGEIQITDALMKQAQDGCVLAYKFKGKRFDCGSAEGYIEATNFCYENLYKTGKAH		2		1.57 % of WT	
PaUGP H74F (enzyme, UDP-glucose pyrophosphorylase of Pseudomonas aeruginosa (galU), residues 1-279, point mutant of Strep-PaUGP; Same construct as m1; source: E. coli BL21(DE3), purified (Strep-Tactin Sepharose); not shown: Strep-tagII, N-terminal, kept) MIKKCLFPAAGYGTRFLPATKAMPKEMLPVVNKPLIQYAVEEALEAGLSEIGIVTGRGKRSLEDHFDISYELEFQIRNTDKEKYLVGIRRLIDECTFAYTRQVEMKGLGHAILTGRPLIGDEPFAVVLADDLCLNLEGDSVLKQMVKLYNQFRCSIVAIQEVPPEETNKYGVIAGEMIRDDIFRVNTMVEKPKPEEAPSNLAIIGRYILTPDIFDLIEQTEPGKGGEIQITDALMKQAQDGCVLAYKFKGKRFDCGSAEGYIEATNFCYENLYKTGKAH	1.1	3.5	4		
PaUGP Y70A (enzyme, UDP-glucose pyrophosphorylase of Pseudomonas aeruginosa (galU), residues 1-279, point mutant of Strep-PaUGP; Same construct as m1; source: E. coli BL21(DE3), purified (Strep-Tactin Sepharose); not shown: Strep-tagII, N-terminal, kept) MIKKCLFPAAGYGTRFLPATKAMPKEMLPVVNKPLIQYAVEEALEAGLSEIGIVTGRGKRSLEDHFDISAELEHQIRNTDKEKYLVGIRRLIDECTFAYTRQVEMKGLGHAILTGRPLIGDEPFAVVLADDLCLNLEGDSVLKQMVKLYNQFRCSIVAIQEVPPEETNKYGVIAGEMIRDDIFRVNTMVEKPKPEEAPSNLAIIGRYILTPDIFDLIEQTEPGKGGEIQITDALMKQAQDGCVLAYKFKGKRFDCGSAEGYIEATNFCYENLYKTGKAH	1.3	2.5		4.08 % of WT	3.8
PaUGP K59A (enzyme, UDP-glucose pyrophosphorylase of Pseudomonas aeruginosa (galU), residues 1-279, point mutant of Strep-PaUGP; Same construct as m1; source: E. coli BL21(DE3), purified (Strep-Tactin Sepharose); not shown: Strep-tagII, N-terminal, kept) MIKKCLFPAAGYGTRFLPATKAMPKEMLPVVNKPLIQYAVEEALEAGLSEIGIVTGRGARSLEDHFDISYELEHQIRNTDKEKYLVGIRRLIDECTFAYTRQVEMKGLGHAILTGRPLIGDEPFAVVLADDLCLNLEGDSVLKQMVKLYNQFRCSIVAIQEVPPEETNKYGVIAGEMIRDDIFRVNTMVEKPKPEEAPSNLAIIGRYILTPDIFDLIEQTEPGKGGEIQITDALMKQAQDGCVLAYKFKGKRFDCGSAEGYIEATNFCYENLYKTGKAH		3.6	4	2.31 % of WT	
PaUGP K59R (enzyme, UDP-glucose pyrophosphorylase of Pseudomonas aeruginosa (galU), residues 1-279, point mutant of Strep-PaUGP; Same construct as m1; source: E. coli BL21(DE3), purified (Strep-Tactin Sepharose); not shown: Strep-tagII, N-terminal, kept) MIKKCLFPAAGYGTRFLPATKAMPKEMLPVVNKPLIQYAVEEALEAGLSEIGIVTGRGRRSLEDHFDISYELEHQIRNTDKEKYLVGIRRLIDECTFAYTRQVEMKGLGHAILTGRPLIGDEPFAVVLADDLCLNLEGDSVLKQMVKLYNQFRCSIVAIQEVPPEETNKYGVIAGEMIRDDIFRVNTMVEKPKPEEAPSNLAIIGRYILTPDIFDLIEQTEPGKGGEIQITDALMKQAQDGCVLAYKFKGKRFDCGSAEGYIEATNFCYENLYKTGKAH		4		1.66 % of WT	
PaUGP Q75A (enzyme, UDP-glucose pyrophosphorylase of Pseudomonas aeruginosa (galU), residues 1-279, point mutant of Strep-PaUGP; Same construct as m1; source: E. coli BL21(DE3), purified (Strep-Tactin Sepharose); not shown: Strep-tagII, N-terminal, kept) MIKKCLFPAAGYGTRFLPATKAMPKEMLPVVNKPLIQYAVEEALEAGLSEIGIVTGRGKRSLEDHFDISYELEHAIRNTDKEKYLVGIRRLIDECTFAYTRQVEMKGLGHAILTGRPLIGDEPFAVVLADDLCLNLEGDSVLKQMVKLYNQFRCSIVAIQEVPPEETNKYGVIAGEMIRDDIFRVNTMVEKPKPEEAPSNLAIIGRYILTPDIFDLIEQTEPGKGGEIQITDALMKQAQDGCVLAYKFKGKRFDCGSAEGYIEATNFCYENLYKTGKAH	1.2	4.2	4		
PaUGP N266A (enzyme, UDP-glucose pyrophosphorylase of Pseudomonas aeruginosa (galU), residues 1-279, point mutant of Strep-PaUGP; Same construct as m1; source: E. coli BL21(DE3), purified (Strep-Tactin Sepharose); not shown: Strep-tagII, N-terminal, kept) MIKKCLFPAAGYGTRFLPATKAMPKEMLPVVNKPLIQYAVEEALEAGLSEIGIVTGRGKRSLEDHFDISYELEHQIRNTDKEKYLVGIRRLIDECTFAYTRQVEMKGLGHAILTGRPLIGDEPFAVVLADDLCLNLEGDSVLKQMVKLYNQFRCSIVAIQEVPPEETNKYGVIAGEMIRDDIFRVNTMVEKPKPEEAPSNLAIIGRYILTPDIFDLIEQTEPGKGGEIQITDALMKQAQDGCVLAYKFKGKRFDCGSAEGYIEATAFCYENLYKTGKAH	1.2	4		64.9 % of WT	
PaUGP E63A (enzyme, UDP-glucose pyrophosphorylase of Pseudomonas aeruginosa (galU), residues 1-279, point mutant of Strep-PaUGP; Same construct as m1; source: E. coli BL21(DE3), purified (Strep-Tactin Sepharose); not shown: Strep-tagII, N-terminal, kept) MIKKCLFPAAGYGTRFLPATKAMPKEMLPVVNKPLIQYAVEEALEAGLSEIGIVTGRGKRSLADHFDISYELEHQIRNTDKEKYLVGIRRLIDECTFAYTRQVEMKGLGHAILTGRPLIGDEPFAVVLADDLCLNLEGDSVLKQMVKLYNQFRCSIVAIQEVPPEETNKYGVIAGEMIRDDIFRVNTMVEKPKPEEAPSNLAIIGRYILTPDIFDLIEQTEPGKGGEIQITDALMKQAQDGCVLAYKFKGKRFDCGSAEGYIEATNFCYENLYKTGKAH		3.6		7.6 % of WT	
PaUGP D67N (enzyme, UDP-glucose pyrophosphorylase of Pseudomonas aeruginosa (galU), residues 1-279, point mutant of Strep-PaUGP; Same construct as m1; source: E. coli BL21(DE3), purified (Strep-Tactin Sepharose); not shown: Strep-tagII, N-terminal, kept) MIKKCLFPAAGYGTRFLPATKAMPKEMLPVVNKPLIQYAVEEALEAGLSEIGIVTGRGKRSLEDHFNISYELEHQIRNTDKEKYLVGIRRLIDECTFAYTRQVEMKGLGHAILTGRPLIGDEPFAVVLADDLCLNLEGDSVLKQMVKLYNQFRCSIVAIQEVPPEETNKYGVIAGEMIRDDIFRVNTMVEKPKPEEAPSNLAIIGRYILTPDIFDLIEQTEPGKGGEIQITDALMKQAQDGCVLAYKFKGKRFDCGSAEGYIEATNFCYENLYKTGKAH		2.1		2.54 % of WT	3.8
